Results published in the DeepSol protein solubility set.

Assay: soluble on expression in E. coli; label from the status in PepcDB or PDB records
With “MAHHHHHHMKGDAEVVDIGSEVLSVTFSNSGRRLAVLTMRQEISVYETVVPTEPIIIKTFQTSFDAAGGWNKTVGPRSANYNARFNVIAFSPEGEKIVAGGDSKWIVMYHATQGYMLKKWPVTTNQDVQGAEEQYQWRQMTEAGHVDDIDVDDADIHLRRGKIMEMPGSRHRHFATGKRQTALTARTMDLAFSCTGTEFVAATTDGLLMFSTRVARPKFQPLQLSANITTQQVRDQLDRGEPVMALMGAMKLGDKMLGVECLRRMPRDAIPVAVSSVPSVLFPLLVQWVSTEVEESRGIEQALLWAQSLMLHSNECTGGFAQERSAVIPALKVLQRGLQQHRALTDLAKENYFSLRYIIDMTKMQKDILQPAATVE” the “soluble on expression in E. coli” value was “not soluble”. With “MAHHHHHHMKLFCVGHRKVPIRVSPFDHPICVGCSSTLSFSSVLRKREYWNDMSTTNPLDVVLNMRLAVKELTNSAAASDKASEREKIKAKKALNKDNIEAARVYAENAIRKKDEGTSYLRLASRVDAAAERIQSAMQMHAMTRSLEKAICGISKVLHSLDPVQITTAMDAFERHVDTVAVNANAMDGTFERSRASAVPAAEVESFLEQITPDNEIDISEQIAVATNYLKKRPAATEVGDDVGITERMQRISIGAR” the “soluble on expression in E. coli” value was “not soluble”. With “MAHHHHHHMKQSIVTPLRSPLHCATPLPLTFFPSYRRWLPVVRHASRRPHGVFEQRRRGRPHGSTKRVLRHCDAARRVAVVQQKLHVRHVPAIGTKKPTQSHIGSHKAAVAFHRHDSTFLNGVPPNHHTHRRSPRRQFVLRKQTKRFHQEGAVAPLGLVKNGPRPQRTAGITERVYSISLRVTFQKKVSLAAKPVHQLSIDALHALRGVLRRDTSVRKNNPLAHHSHRMLKNVQAVGTLWAKGRRVRLFSSKGTHNIRVYVVEDAQDIHQLMVAHKKNKFPARLHCLPLQGGKKVVNLVGVEPAISDVAKLDNYRRTSNPAILGIRNICQLQYLATAKNIAMNVSKRNQAGLSAADVYRLHVQKRHKICRSAKK” the “soluble on expression in E. coli” value was “not soluble”. In the case of “MAHHHHHHMKQSKLVSRPSKTKKPKERKDRREDERYQREMDALIAREVARENVSMRSDTHKPQPKLLEEVQKDTSRRPKTPTSLSTAAVEKQAKIDKESGFQPVVNQRKERQQQQHQQQQTSAPKPMLVNEALERKLNHFFSNLNRKEKLTRLSQPEENPTASKGATIIVRKDIANARSWQQQQQ”, the “soluble on expression in E. coli” value is reported as “soluble”. In the case of “MAHHHHHHMKRVNAIESNREEARERQLSVVRERAKHEAEKMAEELERRSGATLDEIGRTLEAKKRESSALQADRESRIWECEHTLEKIRTRKEDEESASERLRQAMQQPGQGLGLRQSATETKEQQLEMVQLDGARGREAVMRERHSIEAVRRTVRKERCRQRRQWIHQIKEMNAKFPEQVRPLAEERKKKYEQATAKEDAAERALAADVKMIEEYLPKPISLEDIPVNPEETDIIRHQFDEVFTQ”, the “soluble on expression in E. coli” value is reported as “not soluble”. For “MAHHHHHHMKRWDEKLTLALRRGSGSDDVTPNPVSEALRNLEETMESIKRRLSQLEKCVERQRVAINEVRTNTSPFDDLLTKTNGDIQSIQQQLEYVVISLERERGIVTDHTEQLRLFVRESTRRDGGRSGLSDSDPSFLFLLATWLYRPVVDFANGCYVLLSPLIGTLQSLSLFNPDVQVRQTESGVYLNNAQPSEDLLSRLQKGQLDPVLTSKT”, the “soluble on expression in E. coli” value was “not soluble”. In the case of “MAHHHHHHMKTFIGHFNNNALFSRNSFTNKSLRARKYTKNILSLKNLIYSSFFLYSTMNKVIGTHSGRFHTDEILATVMLKFLPEYKDAKIIRTRDQTKLDTCDIVVDVGGVYDHENKRYDHHQKEFEGTLDDKHTIRLSSAGLIYKHYGKEVLRKGFSITDEEKINVLYEKLYTSFIESVDALDNGINQYEGQPKYQINTTIQCRVNRFNPTFLEDDVDENERFMEAAKIVKQEFVHFVTYYSDVWYMAKSIVRESILDRFNFHKSGRVIYLQKYCPYTEHLYDLEQELNIQDEILYCIYSDRYNNFRCTAISKKNEPFVLRLPFPASFRGLKDEQLQTVSKIPGLTFVHYSGFTSAGENIESLVKLVEASLKENNIVY”, the “soluble on expression in E. coli” value is reported as “not soluble”. In the case of “MAHHHHHHMLMCAGRKRFYFSLPSSRALKNIVKLPLLEREDKQKIIHIWKEKYQNDKYVVADHIHISKYEQIKNNCKNNSHFIIPQRNQNGYINFYSQFIDHKLLFITALEEYNKLRANSTPYVTLHFFDELKSREIILTKLNIVNNVITKNQAIKFYNYILSFYSDANYFPYVCKFNNDSRNFHYDAFIDKFKHLC”, the “soluble on expression in E. coli” value is reported as “not soluble”. In the case of “MAHHHHHHMLQINAFKLVRATPFLLKRTGKPADTPDYKQVYLPYDAAPTERELERERRRFKQAHHGRMEHRKLVEVKEVPLNVYTYGKEGMSLPIAIFKDQKDPVIGPEWTYPGIYENKIAAQHWYTEELFDKESKEAFESPWQQQILDNQVKRRMAKVMFRMRQVNMKAVDLFQKERGSSRRSGGAGE”, the “soluble on expression in E. coli” value is reported as “not soluble”. With “MAHHHHHHMLRFRVRLPKGKEPVSMDLDGTTTWGSFVQSISSLTDVPCSQLRILSGFPPRPVEVGDGAASIASVLPGGGNVIVQVGEADVVKGKTEGRYVPPVDGKWHFVRRVCPSDNSCLFHAAAYVLRNKSRVDGPSLRKECADIVQAYPNVFNEKTILDRPNREYVDFIRNPNAWGGAIELMVLSFLTQTEIVALDLTSSNVLHFGEDNNYTVRAYVVFNGQHYDAIAMNPMFNSPQESEDQVLFSSTDAEVLNRARRFVADEAKKLRLR” the “soluble on expression in E. coli” value was “soluble”. With “MAHHHHHHMLRHFQRDVRGGSSSRRKLPRSVVGERSEEGSGTSKDPFVLSLREIPNRSGCYHCVEDCCECLWITELLAVCYGSLPTRRQVMTYRKRERCAKSILPPFVARIVRVAKISSQDTFYDLGCGNGSVLFQVALLTGARCVGVEINERNATVAQDAWRRLRPMIEARRGEPVEVEIICADFCSLMRDEKFFGSSPVIWAANLLMPGPVNHYLSERFRLLPKGSRVLCLEDLYPHGRSVAKFRDPDAFEMFAMTDFKWQTKSVEWCDTEGPFSMYTKRT” the “soluble on expression in E. coli” value was “not soluble”. With “MAHHHHHHMLRQCERLIVQLSQQVLEQEKDIHSLRAALHSSQNRRRRHRQRGGDEKRERAAAVSMAESFSVSTERRQHHHTHHITVKAPTQMTMTHEDSRLRLTLPSSMTPQVSPIHLSGDAGVDSATGPYPEAAVVAPHSPQSSGAGSAVPSPTRSVGKSSGEHGMAAALAFPSIVCDVSSFSDKTNVGLTPSAACDHPPSGESATADGLWASSLLSEPERSSSSSSLARHRRNTAQLTRNAQFETPRVNLDNQDAMSYLLCIFSSAKSTREADGGATAAMAEAGEAAPCGREHRGGAGVRSPNAPLQQQGEHVARRLFHLDPVDENEGSESGNEHSSGGAVSDYDRPAARRPFLPPLRDKRGDGDGSAPPNHKTCGAFDEDDAFLQERYARIVACALAAEFAASTTLVEEDEVEQQRGCKTGPRAPTAAWCRTTSRRDHSASATVSELLRLFTFQPATRHQPYSDGKGL” the “soluble on expression in E. coli” value was “not soluble”. For “MAHHHHHHMLRRHFQLFLRRTPLWLADDGSSLFERYTEIENSNERRMSALKACGMFDDEWIATEKVHGANFGIYSIEGEKTIRYAKRSGIMHPTEHFFGYHMLVPQLQQYITVTREMLCDKLQKKLHTVLINGELFGGKYDHPSLQKTRKTVMVAGKPRTISAVQTDSFPQYSPDLHFYAFDIKYKETNEAEYVTLTFDDATELFKRVPGLLYARAIIRGPMSKVAAFDVEHFVTTIPPLVGMGNYPLKGNWAEGLVVKHAKRGTPGFDPKGLTILKFKCTAFQEISTDRRQGPRVDEMESVRRDSISRSGIQLPALESIIHDPVQLEASKFLLDHICENRLNAVLSKIGTDPFEKQEMTPDDLATLLAKDALKDFLKEAEPAIVNTPILTRRDMARYVLFESRQLVCSRWKAILQRQTADVVE”, the “soluble on expression in E. coli” value was “not soluble”. In the case of “MAHHHHHHMLRRLVSCASPLRLRGCGAAVVLGNGRFASTANASAAPPITTTKAPTYGTVPDIPNLNFLSSPDNLLNTVDGTVDVCEALLKEIPKAKTPQAKHDLIDSTSNVLCLLLDPCEFVRQIHPDENYKRGASLAFQKGYEYMCEVNSRRDLYDVIKELDSQEGRKGLTPESSRTLCS”, the “soluble on expression in E. coli” value is reported as “not soluble”. With “MAHHHHHHMLSGITFEIFLFNFEIYHDFSSPLLFSLAIRIVIACGIPSMTNSSVQQVGCRVTYIWLSGKDSHHDIRSKDRTIYISPDDLEKDPKELLRLDMFPVWNFDGSSTGQAEGLITEIHIKPVNAYHCCIPRASSSVPWIVVLAECFLPTGEPTPDNSRAVARRIFDKGLGTHPWFGMEQEYFLVKDGHPYGWCPTCPPASQGPYYCATGSECIRGRKHVDLHYEVCLQMGLKICGTNAEVAFGQWEFQVGPCEGIEMGDQLVVARWVLLRILELEGLDADFRAKPILGDWNGSGLHTNFSTEATRAPGGLEVIYQYIERLKETSSKDIIFYGVDNNERLIGKHETSKLNETTFGIGTRGTSIRIPTAVAAAQSGYMEDRRPAAGADPYLVSSRLFASCLSVDAVELDFSSPRHEREWMASTSKV” the “soluble on expression in E. coli” value was “not soluble”. For “MAHHHHHHMLSQNVAKTTVPSYYMIRTNLPQRKPQNQWEGVYYFGGITKRQRHLILLQRKREREARMRAFSASCSNLLRLLEGDTQEQQQAKTQTIQLSSPHGPFDLAIRLAQHGLYQQASRIVDELHQQRALRMSHYGLLIDALSAPCLGQRILYGSAQCDPALTYKLLGDENGEERAQEAHRWFDMAFALLTTECRMSGSEHRLPQATAAATHLVNALMRALLTCGYTHVSAVPDAVYDRMGLMGISPTISTYELVMLALSLQGNMKEAESVFSFLRRHHNEHVTIGSFNALLLGHRECRQFDRCDAIWQELVDRRWPRASTLTAELYLRSIVDHSYTPTSGPLQRFGNINVVEKKKIPLVLAQMDDLGIPRAHLSRPLMDEVEDALRKFHIYKSRYYEWGRAVKQFNFIEFRRRNGWMYDLHLMKNTTKQVGPLRDFNQPDATQAPVATVEIPAFFNERPAWEQPPLEETLYVTESRERYDDVRSGDIYEDRTRSLHDRSPTWMNEVPETRYDHLYGVNHPDIAKIGIRRHLNAEYVNRKEVVERDAALMKKNLSTGRRLRRKVESSRTHRNAGSMSGAAPASASR”, the “soluble on expression in E. coli” value was “not soluble”. In the case of “MAHHHHHHMLSRLSERCTIATGLEQVLRHYVWSAAWLRDAEPAAAASENIDLSGLMERAGRAAYDVFANLYTSQKHWLILVGSGNNGGDGYVIARHAREAGKIVTVLRMPHSKPLPTEAASAQHAWKAVGGTESTMSPGAPLQLPADVDLIVDGLLGTGICGPPREQYADVIRHINGLPVPRVAIDIPSGLNAETGEAAGACVKADHTATFICLKPGLLTGQAKDYVGQLHYRSLGLEDWMTAPERMRVALCRRVALDDVYEYFGIRRSALAHKGSCGKAILVGGDHGFGGAALMSAEACVTVGAGLTRVLTRPEYAAPLLTRCPEAMVTAVETDTGEQLKQQMLEAFEWASTLAVGPGLGTGAYGQAALTAALRHAELHQDKTLVLDADALNLLAGCLHGREGGAAAGARKHLPVLPNSIITPHPGEAARLLDCRVADVEKDRLAAARRLAAILGGTCLLKGPGTIVHCHSSAKTAIVDAGNAGMASGGMGDVLTGLLAGLAAQRMHDTFDTTCAGALVHGVAADMVAAEDGRGTRGIRATELIHRVPLIVNASGPSPASRQRPSGQ”, the “soluble on expression in E. coli” value is reported as “soluble”. In the case of “MAHHHHHHMLSTSQAFLASLRYRRPYWMLFLKGADNWKIYTVIQQPDHQRTEMLYQAWLGGLDRPYVRPKCMAHQPVWLSKKRHLLQKARLEGPETSVEKYVLEWYKKFHSFQGTDRPTAEDLHTAFDLVERPLDLSYACQLLNQCRNHYYIRLSDDSFEIFLEACLRVDRRDCAIYALEHAEELGFWHVSDNCRRYLAGEQTWYKRSPVDLLYYPLEENAERNTAVTSGTAASAVAASDKVKGDEKVEGAPRTSATTSATAASAENEGEAEVTDDEIARLQAELEALEREIGSEGADGTDKD”, the “soluble on expression in E. coli” value is reported as “not soluble”. For “MAHHHHHHMMKNTVRQFVKEITYLEVWEHFRRFGDAAGPDSVKCRLLCSDAVATQLNERIRMRYLLEQFLAQSSTTTSTGVAGEPRRWWEGDLTRCVDSDRRVLAETLLEDGWMLMQLNNCVSDREWLITTMTFQREKSTT”, the “soluble on expression in E. coli” value was “not soluble”.
